The values that follow come from article PMC5889556.

For one test, the target named is FtsZ (Bacillus subtilis) (UniProt P17865). The following applies: cited from earlier work.
Test [1] addresses ClpXP complex (B. subtilis) (UniProt P50866).

On to UgtP (from UniProt P54166), for which, in the test with FtsZ (Bacillus subtilis), the Kd was 38 nM.

B1: His-UgtP (enzyme)
chain: MNTNKRVLILTANYGNGHVQVAKTLYEQCVRLGFQHVTVSNLYQESNPIVSEVTQYLYLKSFSIGKQFYRLFYYGVDKIYNKRKFNIYFKMGNKRLGELVDEHQPDIIINTFPMIVVPEYRRRTGRVIPTFNVMTDFCLHKIWVHENVDKYYVATDYVKEKLLEIGTHPSNVKITGIPIRPQFEESMPVGPIYKKYNLSPNKKVLLIMAGAHGVLKNVKELCENLVKDDQVQVVVVCGKNTALKESLSALEAENGDKLKVLGYVERIDELFRITDCMITKPGGITLTEATAIGVPVILYKPVPGQEKENANFFEDRGAAIVVNRHEEILESVTSLLADEDTLHRMKKNIKDLHLANSSEVILEDILKESEMMTAKQKAKVLS
On to B1, for which, in test [1], the in vitro ClpXP proteolysis assay with 5 mM ATP: percent of purified His-UgtP degraded after 45 min, by anti-His immunoblot was 88% and the in vitro ClpXP proteolysis assay without ATP: percent of purified His-UgtP degraded, by anti-His immunoblot stood at 13%.

As a reminder, the Kd is the constant that tells how readily two partners part at equilibrium.
